Results: patent US20210214454A1

Key:
[1] = biological target: human CD40 protein expressed on cells (human) (UniProt P25942); assay: flow cytometry on CHO-S cells transiently expressing human CD40; AF647 anti-human IgG (H+L) secondary; GeoMean RL1-H
[2] = biological target: cynomolgus CD40 protein expressed on CHO-S cells (cynomolgus) (UniProt G7PG38); assay: flow cytometry on CHO-S cells transiently expressing cynomolgus CD40; AF647 anti-human IgG (H+L) secondary; GeoMean RL1-H

Sequence of human CD40 protein expressed on cells (human) (P25942 21-277 limits assumed): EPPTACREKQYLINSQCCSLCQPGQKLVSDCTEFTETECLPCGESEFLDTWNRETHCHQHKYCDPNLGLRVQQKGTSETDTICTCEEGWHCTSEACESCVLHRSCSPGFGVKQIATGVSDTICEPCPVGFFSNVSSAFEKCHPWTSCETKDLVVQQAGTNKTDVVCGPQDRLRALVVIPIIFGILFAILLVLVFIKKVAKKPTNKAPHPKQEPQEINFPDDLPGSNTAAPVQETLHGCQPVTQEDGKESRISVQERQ

- EC50 (read off the curve) [1]: 0.07 µg/mL
- EC50 (read off the curve) [2]: 0.08 µg/mL
Substance: selicrelumab analogue (antibody)
